As usually defined, the EC50 is the concentration needed to bring the measured effect to its halfway point. Low values mean higher potency in that assay, high ones lower potency in that assay.

B1: chi73 (antibody, human IgG1, kappa, V domains shown)
VH: QVQLQQSGPELVKPGASVKISCKASGYAFSTSWMNWVKERPGKGLEWIGRIYPGDGDTKYNGKFQGKATLTADKSSSTAYMKLSSLTSEDSAVYFCVRSIYYLYYFDYWGQGTTLTVSS
VL: DIQMTQPTSSLSASLGDRVTISCSTSQDIYNNLSWFQQKPDGTVRLLIYYTSSLHSGVPSRFSGSGSGTDYSLTISNLEPEDIATYYCQQYNNLPFTFGGGTNLEIRR
B2: hu2H1L1 (antibody, human IgG1, kappa, V domains shown)
VH: EVQLVESGGGLVQPGGSLRLSCAASGFTFSDYYMAWVRQAPGKGLEWVANINFDGSSTYYLDSLKSRFTISRDNAKNSLYLQMNSLRAEDTAVYYCARDLDGYYGYFDVWGQGTTVTVSS
VL: EIVLTQSPDFQSVTPKEKVTITCSASSSVSHMYWYQQKPDQSPKLLIYRTSNLASGVPSRFSGSGSGTDFTLTINSLEAEDAATYYCQQYHSYPLMFGQGTKLEIKR
B3: hu27H1L6 (antibody, human IgG1, kappa)
heavy: not shown
light: QIVLTQSPDFQSVTPKEKVTIQCSASSSVSYMYWYQQKPDQSPKPWIYRTSNLASGVPSRFSGSGSGTDYTLTINSLEAEDAATYYCQQYHSYPLTFGQGTKLEIKRTVAAPSVFIFPPSDEQLKSGTASVVCLLNNFYPREAKVQWKVDNALQSGNSQESVTEQDSKDSTYSLSSTLTLSKADYEKHKVYACEVTHQGLSSPVTKSFNRGEC
B4: hu15H4L2 (antibody, human IgG1, kappa, V domains shown)
VH: EFQLVQSGAEVKKPGASVKVSCKASGYSFTDHNMNWVRQAPGQRLEWMGLINPNYGTADYNQKFKGRVTLTVDQSATTAYMELSSLRSEDTAVYYCARGSSLFAYWGQGTLVTVSS
VL: DIQMTQSPSSLSASVGDRVTITCKASQGVDTAVAWYQQKPGKSPKLLIYWASTRHTGVPDRFSGSGSGTDFTLTISSLQPEDVATYYCQQYSRYPLTFGQGTKLEIKR
B5: hu71H3L1 (antibody, human IgG1, kappa)
heavy: not shown
light: DIVMTQTPLSLPVTPGEPASISCRSSQSLVHSYGNTYLHWYLQKPGQSPQLLIYKVSNRFSGVPDRFSGSGSGTDFTLKISRVEAEDVGVYYCSQTTHVPWTFGGGTKVEIKRTVAAPSVFIFPPSDEQLKSGTASVVCLLNNFYPREAKVQWKVDNALQSGNSQESVTEQDSKDSTYSLSSTLTLSKADYEKHKVYACEVTHQGLSSPVTKSFNRGEC
B6: hu71H1L1 (antibody, human IgG1, kappa)
heavy: not shown
light: B5 light
B7: hu71H2L1 (antibody, human IgG1, kappa)
heavy: not shown
light: B5 light
B8: hu71H1L2 (antibody, human IgG1, kappa)
heavy: not shown
light: B5 light with I2V, M4V
B9: hu71H4L1 (antibody, human IgG1, kappa)
heavy: not shown
light: B5 light
B10: hu71H2L2 (antibody, human IgG1, kappa)
heavy: not shown
light: B5 light with I2V, M4V
B11: hu71H4L2 (antibody, human IgG1, kappa)
heavy: not shown
light: B5 light with I2V, M4V
B12: hu46H2L3 (antibody, human IgG1, kappa, V domains shown)
VH: EVQLVESGGGLVKPGGSLRLSCAASGFTFSNYGMSWVRQAPGKGLEWVSTIGSGGGYTYYSDSVKGRFTISRDNAKNSLYLQMNSLRAEDTAVYYCVRHPQIGYWGQGTLVTVSS
VL: DIQMTQSPSSLSASVGDRVTITCKASQSVGTAVAWYQQKPGKAPKLLIYSASSRYTGVPDRFSGSGSGTDFTLTISSLQPEDFADYFCHQYSSYPLTFGGGTKVEIKR
B13: hu46H3L3 (antibody, human IgG1, kappa, V domains shown)
VH: B12 VH with L45I, E46K
VL: B12 VL
B14: hu46H4L2 (antibody, human IgG1, kappa, V domains shown)
VH: B12 VH with L45I, E46K, S49A
VL: B12 VL with D60S
B15: hu46H3L1 (antibody, human IgG1, kappa, V domains shown)
VH: B12 VH with L45I, E46K
VL: B12 VL with D60S, D85T, F87Y
B16: hu46H3L2 (antibody, human IgG1, kappa, V domains shown)
VH: B12 VH with L45I, E46K
VL: B12 VL with D60S
B17: hu46H4L1 (antibody, human IgG1, kappa, V domains shown)
VH: B12 VH with L45I, E46K, S49A
VL: B12 VL with D60S, D85T, F87Y
B18: hu50H1L1 (antibody, human IgG1, kappa)
heavy: not shown
light: DIVMTQSPLSLPVTPGEPASISCRSSQSILHSNGNTYLEWYLQKPGQSPQLLIYRVSNRFSGVPDRFSGSGSGTDFTLKISRVEAEDVGVYYCFQGLHVPPTFGQGTKLEIKRTVAAPSVFIFPPSDEQLKSGTASVVCLLNNFYPREAKVQWKVDNALQSGNSQESVTEQDSKDSTYSLSSTLTLSKADYEKHKVYACEVTHQGLSSPVTKSFNRGEC
B19: hu50H2L2 (antibody, human IgG1, kappa)
heavy: not shown
light: B18 light with I2V, V3F
B20: hu50H2L1 (antibody, human IgG1, kappa)
heavy: not shown
light: B18 light
B21: hu50H2L3 (antibody, human IgG1, kappa, V domains shown)
VH: EVQLVQSGAEVKKPGASVKVSCKASGFTFTNYGISWVRQAPGQGLEWMGEIYPRSGNTYYNTNFKGRVTLTADKSTSTAYMELRSLRSEDTAVYYCARNPFTTVVEGFAFWGQGTLVTVSS
VL: DIVMTQSPLSLPVTPGEPASISCRSSQSILHSYGNTYLEWYLQKPGQSPQLLIYRVSNRFSGVPDRFSGSGSGTDFTLKISRVEAEDVGVYYCFQGLHVPPTFGQGTKLEIKR
B22: hu50H1L3 (antibody, human IgG1, kappa, V domains shown)
VH: B21 VH with L70M, A72T
VL: B21 VL
B23: Chi31 (antibody, human IgG1, kappa, V domains shown)
VH: EVKLVESEGGLVQPGSSKKLSCTASGFTFSDYYMAWVRQVPEKGLEWVASINYDGSSTYYLDSLKSRFIISRDNAKNNLYLQMNSLKSEDTATYYCAGSDGYWAWFAYWGQGTLVTVSA
VL: DIQMTQSPASLSASVGEAVTITCRASGNIHNYLAWYQQKQGKSPQLLVYNAETLADGVPSRFSGSGSGTQFSLKINSLRPEDFGSYYCQHFWSTPPTFGGGTKLEIKR
B24: hu27H1L2 (antibody, human IgG1, kappa)
heavy: not shown
light: B3 light with Q1E, Q22T
B25: hu27H1L1 (antibody, human IgG1, kappa)
heavy: not shown
light: B3 light with Q1E, Q22T, Y70F
B26: hu27H1L4 (antibody, human IgG1, kappa)
heavy: not shown
light: B3 light with Q1E, Y70F
B27: hu27H1L5 (antibody, human IgG1, kappa)
heavy: not shown
light: B3 light with Q1E
B28: hu27H1L3 (antibody, human IgG1, kappa)
heavy: not shown
light: B3 light with Q22T

Numbering of substitutions follows the chain as printed.

The target of one assay is T1, human PSMA antigen (R&D SYSTEM, 4234-ZN-010) (human, UniProt Q04609 44-750).
T1 construct: bought antigen
T1 sequence (Q04609 44-750 limits assumed): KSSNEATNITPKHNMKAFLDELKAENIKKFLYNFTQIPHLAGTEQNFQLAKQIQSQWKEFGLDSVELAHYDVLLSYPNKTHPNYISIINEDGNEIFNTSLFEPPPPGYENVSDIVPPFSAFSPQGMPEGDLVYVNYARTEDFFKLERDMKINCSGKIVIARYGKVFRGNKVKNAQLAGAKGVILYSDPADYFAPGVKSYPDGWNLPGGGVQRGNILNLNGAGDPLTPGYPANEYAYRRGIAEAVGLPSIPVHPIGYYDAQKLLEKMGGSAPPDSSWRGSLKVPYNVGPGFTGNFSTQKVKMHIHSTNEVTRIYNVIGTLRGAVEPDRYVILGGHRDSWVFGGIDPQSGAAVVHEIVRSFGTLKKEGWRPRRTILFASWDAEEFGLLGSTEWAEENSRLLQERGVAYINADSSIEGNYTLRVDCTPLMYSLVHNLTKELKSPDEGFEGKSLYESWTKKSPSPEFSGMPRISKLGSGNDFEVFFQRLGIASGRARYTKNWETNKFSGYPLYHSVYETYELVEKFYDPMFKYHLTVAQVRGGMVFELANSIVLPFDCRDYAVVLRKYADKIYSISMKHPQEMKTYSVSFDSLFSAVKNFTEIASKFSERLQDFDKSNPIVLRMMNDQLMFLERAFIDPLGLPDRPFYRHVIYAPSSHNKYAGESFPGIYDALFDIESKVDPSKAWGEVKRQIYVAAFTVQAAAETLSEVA
The assay is described as follows: ELISA, plate-bound PSMA antigen. The method, then:
To test the ability of the PSMA-targeting humanized antibodies of the present disclosure to bind to PSMA antigen, the ELISA method was used in this test example to measure the binding of the PSMA-targeting humanized antibodies to human PSMA antigen (purchased from R&D SYSTEM, 4234-ZN-010). The specific steps are as follows: A 96-well plate was coated with PSMA antigen at 1 μg/well and placed at 4° C. overnight. After the supernatant was discarded, the plate was blocked with 5% skim milk for 2 h. Different concentrations of humanized antibodies were prepared using 1% BSA. The initial concentration was 10 μg/mL and was serially diluted 4-fold to obtain 12 concentrations. After the blocked 96-well plate was washed twice, the […] was added, and the plate was incubated at 4° C. for 1 h. After four washes, the plate was incubated with Strepidation-HRP secondary antibody (1:10,000) at 4° C. for 1 h. After color development with TMB, the reaction was stopped with 0.1 M sulfuric acid.
(In general: ELISA stands for enzyme-linked immunosorbent assay.)
Regarding B1, the midpoint of the response, the EC50, lay at 0.029 µg/mL and the “Top (maximum absorbance)” value stood at 2.08 absorbance.

Take B2: the concentration for a half-maximal effect (EC50) turned out to be 0.0354 µg/mL and the “Top (maximum absorbance)” value was determined as 0.975 absorbance.

With B3, the half-maximal effective concentration (EC50) was determined as 0.398 µg/mL and the “Top (maximum absorbance)” value was 0.553 absorbance.

Consider B4, for which a half-maximal response (EC50) required 0.0421 µg/mL and the “Top (maximum absorbance)” value stood at 2.23 absorbance.

The next assay deals with T2, human PSMA on cells (Cho-hPSMA, CHO-K1 cells overexpressing full-length human PSMA) (human, UniProt Q04609 1-750).
T2 construct: whole, on cells; also called cell surface PSMA; PSMA-expressing Lncap cells
T2 sequence (Q04609 whole entry): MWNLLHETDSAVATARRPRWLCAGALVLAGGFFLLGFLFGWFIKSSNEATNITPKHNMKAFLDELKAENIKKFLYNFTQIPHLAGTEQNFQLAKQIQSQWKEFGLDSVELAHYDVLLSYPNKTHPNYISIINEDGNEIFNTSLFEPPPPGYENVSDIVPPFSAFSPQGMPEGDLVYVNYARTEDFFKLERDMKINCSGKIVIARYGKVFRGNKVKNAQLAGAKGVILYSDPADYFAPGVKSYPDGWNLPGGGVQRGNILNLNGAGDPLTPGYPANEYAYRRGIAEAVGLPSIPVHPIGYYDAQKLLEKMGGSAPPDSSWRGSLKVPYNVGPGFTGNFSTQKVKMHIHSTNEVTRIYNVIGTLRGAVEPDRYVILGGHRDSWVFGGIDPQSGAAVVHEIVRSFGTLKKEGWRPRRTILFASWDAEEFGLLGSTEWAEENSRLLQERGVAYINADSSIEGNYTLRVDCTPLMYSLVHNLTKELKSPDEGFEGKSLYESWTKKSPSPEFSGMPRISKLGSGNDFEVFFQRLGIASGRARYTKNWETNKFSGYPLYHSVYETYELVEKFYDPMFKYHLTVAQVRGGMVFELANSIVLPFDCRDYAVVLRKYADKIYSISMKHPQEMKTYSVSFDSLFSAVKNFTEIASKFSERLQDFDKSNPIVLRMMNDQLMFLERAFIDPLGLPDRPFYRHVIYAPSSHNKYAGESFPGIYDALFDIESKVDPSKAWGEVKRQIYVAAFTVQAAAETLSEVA
Briefly: cell ELISA (OD450), Cho-hPSMA cells. The method, then: Experiment 2: Cells were cultured and inoculated onto a cell plate using the same method as in Experiment 1. The antibodies were serially diluted, and the antibody solutions were added to the cell plate at 100 μL/well. The plate was incubated at 4° C. for 1 h and then washed. An HRP-Goat Anti-human IgG (H+L) secondary antibody dilution (1:8000) was added to the cell plate at 100 μL/well, and the plate was incubated at 4° C. for 1 h and then washed by centrifugation. After color development with TMB, the reaction was stopped with 0.1 M sulfuric acid, and OD450 values were measured.
Molecule B5 yielded a concentration for a half-maximal effect (EC50) of 0.086 µg/mL. The same measure, in the same setting: then B6, with 0.12 µg/mL. Still for that read-out and setting: then B7, with 0.0631 µg/mL. With B8, a half-maximal effect (EC50) was put at 0.11 µg/mL. Compared with the last molecule, the EC50 is about 1.7-fold higher.

Regarding B9, the midpoint of the response, the EC50, lay at 0.101 µg/mL. Still for that read-out and setting: then B10, with 0.116 µg/mL; and B11, with 0.0867 µg/mL. In turn, B3 showed an EC50 of 2.77 µg/mL.

B12 had an EC50 of 0.0805 µg/mL. Same read-out and setting: then B13, with 0.0912 µg/mL.

For the molecule B14, it took 0.079 µg/mL to reach a half-maximal effect (EC50).

Regarding B15, the concentration giving a half-maximal response (EC50) worked out at 0.0597 µg/mL. B16 had an EC50 of 0.0617 µg/mL. The same measure, in the same setting: then B17, with 0.0843 µg/mL; and B18, with 0.0679 µg/mL. As to B19, the response was half-maximal at 0.0477 µg/mL (EC50).

B20 registered an EC50 of 0.0487 µg/mL. The EC50 values of the last two molecules are within 1.5-fold of each other. Regarding B21, the 50% effective concentration (EC50) turned out to be 0.104 µg/mL. The same measure, in the same setting: then B22, with 0.108 µg/mL; and B23, with 0.141 µg/mL.

Turning to B24, the concentration for a half-maximal effect (EC50) is 1.65 µg/mL. The same measure, in the same setting: then B25, with 1.17 µg/mL; and B26, with 1.73 µg/mL. B27 came in with an EC50 of 2.39 µg/mL. Consider B28, for which a half-maximal effect (EC50) was put at 1.4 µg/mL.

Turning to B4, a half-maximal effect (EC50) was put at 0.0795 µg/mL.
